Results as given in patent US20130143822A1, “AGENTS FOR TREATING ALZHEIMER'S DISEASE” (priority 2010, published 2013).

Tests used:
Aβ1-42 oligomers = Aβ1-42 oligomers (Homo sapiens, UniProt P05067); experiment: Surface plasmon resonance, Aβ1-42 monomers, oligomers and fibrils immobilized on a CM5 biosensor chip; format: binding
Method: L3 is shown in section A and D3 is shown in section B of the figure. […] Aβ1-42 monomers (dashed lines), oligomers (solid lines) and fibrils (dotted line) were immobilized on a CM5 biosensor chip. Interaction analyses were carried out by means of surface […]. RU: resonance units. In each case, 25 μl peptide solution (100 μg/ml) was injected. […] The same results are also obtained for Aβ1-40 oligomers.

Aβ1-42 = Aβ1-42 (Homo sapiens, UniProt P05067); experiment: Density gradient centrifugation (iodixanol gradient 5-50%) of Aβ-peptide mixtures, SDS-PAGE and silver staining; format: biochemical; settings: 125 μM Aβ and 125 mM peptide
Method: L3 precipitates Aβ oligomers from complex mixtures of different Aβ forms. The size distributions of Aβ in solution and in Aβ-peptide mixtures were examined by way of sedimentation analysis on an iodixanol gradient (5-50%). The mixtures contained 125 μM Aβ and 125 mM peptide, respectively. After centrifugation, 14 fractions of 140 μl each were obtained from the surface by sequential pipetting and analyzed by means of denatured polyacrylamide gel electrophoresis SDS-PAGE and subsequent silver staining. […] Large aggregates form, which in subsequent experiments are described as amorphous, not fibrillary and not amyloidogenic.

[1] = target: Aβ1-42 oligomeric particles (Homo sapiens, UniProt P05067); experiment: Dynamic light scattering, hydrodynamic radius of Aβ1-42 particles; format: biochemical; settings: 5 μM Aβ1-42 oligomeric particles, 50 μM L3, immediately and after 20 minutes, 25° C.
Method: Dynamic light scattering is used to determine the hydrodynamic radius of particles in solution or suspension. A 5 μM sample of Aβ1-42 oligomeric particles was diluted by adding a 50 μM L3 sample on the one hand, and buffer (50 mM sodium phosphate, 100 mM NaCl, pH 7.4) on the other hand. The hydrodynamic radius of the Aβ1-42 particles with and without L3 was measured using a DynaPro light scattering system, immediately after the sample was prepared and after 20 minutes. A 655.6 nm laser (13 mW/58% laser intensity) was used. The measuring time was 2 seconds, and the measurement temperature was 25° C. Spherical sedimented particles were assumed for calculating the hydrodynamic radius.

Aβ [2] = target: T1, Aβ (Homo sapiens, UniProt P05067); experiment: Thioflavin T test of Aβ aggregation; format: biochemical; settings: 25 μM Aβ with 1 mM L3
T1 construct: joint stock solutions made of 25 μM Aβ (light bars) and 25 μM Aβ with 1 mM L3
Method: (§1) Both tests were prepared from joint stock solutions made of 25 μM Aβ (light bars) and 25 μM Aβ with 1 mM L3 (dark bars). In the ThT test, 5 μl of the solutions was mixed with 200 μl ThT solution (5 μM ThT; 50 mM glycerin pH 8.5) and measured at λex 440 nm and λem=490 nm in the fluorescence spectrometer. ThT is a dye which, when bound to regular fibrils, has higher fluorescence and therefore serves as a measure of the fibrillation. In the turbidimetric test, the clouding of the solution was measured in the UV/VIS spectrometer as a measure of the aggregation as absorption at 355 nm.

Aβ [3] = target: T1, Aβ; experiment: Turbidimetric test of Aβ aggregation (absorption at 355 nm); format: biochemical; settings: 25 μM Aβ with 1 mM L3
Method: as §1

Aβ [4] = target: T1, Aβ; experiment: Seeding test: amyloidogenic properties of Aβ-L3 aggregates by ThT fluorescence over time; format: biochemical; settings: seeds 20% v/v added to freshly prepared Aβ, compared with Aβ without seeds
Method: Amyloidogenic seeds are particles which act as “nuclei” and expedite the aggregation process. With regard to the aggregation of Aβ, it is known that existing Aβ oligomers/seeds considerably expedite the aggregation process of monomers. For the experiment, seeds were produced which consisted of Aβ (triangles) and such, which consisted of Aβ and L3 (squares). After incubating Aβ and A-L3 mixtures for 5 days, the seeds were centrifuged off and washed. The seeds (20% v/v) were added to freshly prepared Aβ in the ThT test. Aβ without seeds (rhombi) were measured for control purposes. […] This is an indication that Aβ-D3 aggregates no longer have amyloid structures.

[5] = SPR, 25 μl peptide solution (100 μg/ml) injected

Chain of Aβ1-42 oligomers (P05067 672-713 limits assumed): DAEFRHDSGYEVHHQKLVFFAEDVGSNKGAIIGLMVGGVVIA
T1 sequence (P05067 672-713 limits assumed): as above
Chain of Aβ1-42 (P05067 672-713 limits assumed): as above
Chain of Aβ1-42 oligomeric particles (P05067 672-713 limits assumed): as above

In the case of “L3: L3 peptide, which according to the invention binds to Aβ oligomers (LRMMLQIKRIPR)”, the “binding to Aβ1-42 oligomers” value (Aβ1-42 oligomers; [5]) is reported as “very clear binding”, the “maximum resonance (RU) compared with D3” value (Aβ1-42 oligomers; [5]) is reported as “higher maximum resonance than D3” and the “binding strength compared with D3” value (Aβ1-42 oligomers; SPR, FIG. 1) is reported as “stronger binding than D3”. For the same substance, the “binding to the Aβ peptide compared with peptide D3” value (Aβ1-42 oligomers; general statement) was “better binding”, the “content of Aβ oligomers after density gradient centrifugation” value (Aβ1-42) was “significantly reduce” and the “reduction of Aβ oligomer content compared with D3” value (Aβ1-42; at the analyzed time) was “to a greater degree than D3”. The “formation of large Aβ aggregates (hydrodynamic radius)” value [1] was “favorable in terms of the fast formation of large Aβ aggregates”, the “ThT test result of the Aβ aggregates (fibrillary structure)” value (Aβ [2]) was “negative” and the “development of Aβ aggregates (clouding)” value (Aβ [3]) was “fast development of large Aβ aggregates”. For the same substance, the “acceleration of Aβ aggregation by seeds composed of Aβ and L3” value (Aβ [4]) was “do not result in any accelerated aggregation”.
